In test [1] the test system is floor plate cells induced from human iPS cell (253G1 strain, 201B7 strain). Kind of test: Study of various MEK inhibitors (including FGFR inhibitor): NURR1 expression by quantitative RT-PCR on day 45. Type of test: cell-based. The settings on record: for expression of NURR1: 253G1 strain, added to ascorbic acid and dbcAMP, 3 μM PD0325901, 3 μM PD184352, 10 μM SU5402. The text has this:
Whether midbrain dopaminergic neuron can be induced in a medium containing any of PD184352 (Axon MedChem), SU5402 (FGF receptor (FGFR) inhibitor, Wako Pure Chemical Industries, Ltd.) and PD173074 (FGFR inhibitor, Axon MedChem) instead of PD0325901 in the aforementioned (A) Neuro/B27 was studied.
Floor plate cells were induced by a method similar to the methods described in Reference Examples 1 to 3, the medium was exchanged with Neuro/B27 added with (1) 3 factors of ascorbic acid, dbcAMP and PD0325901, (2) 2 factors of ascorbic acid and dbcAMP, (3) ascorbic acid, dbcAMP and 3 μM PD184352, (4) ascorbic acid, dbcAMP and 10 μM SU5402, or (5) ascorbic acid, dbcAMP and 0.1 μM PD173074 on day 13 of culture, and the cells were cultured at 37° C. under 5% CO2 for not less than 30 days. The medium was exchanged every 3-4 days during the above-mentioned culture periods. On day 45 of culture, the cells were recovered, and expression variation of NURR1 was examined. In 253G1 strain, the expression of NURR1 was elevated by the addition of PD0325901, PD184352 or SU5402 and, in 201B7 strain, the expression of NURR1 was elevated by the addition of all 4 kinds.

In test [2] the test system is TH/hNuc double positive cells in the mouse striatum. The test is described as follows: Transplantation of day 26 cells to mouse striatum, tissue staining for TH and hNuc. The format is in vivo, NOD SCID mice. Here is the method:
Midbrain floor plate cells were induced by a method similar to the methods described in Reference Examples 1 to 3, the medium was exchanged with Neuro/B27 added with 0.1 mM ascorbic acid, 0.5 mM dbcAMP, 3 μM PD0325901 or 0.1 mM ascorbic acid, 0.5 mM dbcAMP, 3 μM PD0325901, 20 ng/ml activin A on day 12 of culture, and the cells were cultured for 14 days more (total 26 days). After culture, the cells were washed with PBS, and dispersed by treating with TrypLE Express (Life Technologies) at 37° C. for 10 min. The cell concentration was adjusted to 1×10^5 cells/μl with Neuro/B27 medium, and the cells were maintained on ice until transplantation.
A transplantation experiment to mouse striatum was performed as follows. Twelve 8-week-old male NOD SCID mice (Charles River Laboratories Japan, Inc.) were divided into a control group and an activin A group (6 mice per each group). The cells cultured with the addition of ascorbic acid, dbcAMP, PD0325901 were used for transplantation to the control group, and the cells cultured with the addition of ascorbic acid, dbcAMP, PD0325901, activin A were used for transplantation to the activin A group. The hair of the head surgical field of the mice was shaved under pentobarbital (50 mg/kg, ip) anesthesia, and isodine was applied. Several minutes later, the skin was disinfected by wiping off isodine with Menban immersed in 0.1% Osvan aqueous solution, and the mice were fixed on a brain stereotaxis apparatus (David Kopf, David Kopf Instruments in USA). The scalp was incised from the midline, periosteum was detached, and Bregma and Lambda of the mice were exposed. “The mouse brain in stereotaxic coordinates” was referred to for the coordinate of the striatum (AP: +0.5 mm; ML: +1.8 mm), a hole was made in the cranial bone with an electric drill (ϕ0.5 mm), Hamilton syringe was inserted from the surface of the cranial bone to the depth DV: −3.5 mm, and the cells (1×10^5 cells/μl, 2 μl) were transplanted over 10 min After transplantation, the incision on the head was sutured and the mice were allowed to recover. […]

Test [3] has as its system floor plate cells induced from human iPS cell (253G1 strain, 201B7 strain). Kind of test: TH and NURR1 expression by quantitative RT-PCR on day 26 of culture. Type of test: cell-based. As for the experimental part: Floor plate cells were induced by a method similar to the methods described in Reference Examples 1 to 3, the medium was exchanged with Neuro/B27 added with one or more kinds of 0.1 mM ascorbic acid, 0.5 mM dbcAMP, 3 μM PD0325901, and 20 ng/ml activin A (R&D), or Neuro/B27 without addition of ascorbic acid, dbcAMP, PD0325901, and activin A as a control on day 12 of culture, and the cells were cultured for 14 days more (total 26 days). The cells after culture were recovered, and the expression variation of TH and NURR1 was examined by a method similar to Reference Example 3. […] On the other hand, when ascorbic acid, dbcAMP and PD0325901 were added, the expression level was lower at the time point of day 26 of culture than the addition of ascorbic acid, dbcAMP and activin A.

For test [4], the system named is human iPS cell (253G1 strain, 201B7 strain). The test is described as follows: Floor plate cell marker expression by quantitative RT-PCR on day 13 of culture. The format is cell-based. The settings on record: FGF8 added in addition to the 5 kinds (All+FGF8). As for the experimental part:
The medium after preculture as described in the above-mentioned Reference Example 2 was exchanged with a differentiation induction medium containing factors inducing differentiation into floor plate cell (LDN193189 (0.5 μM, Axon MedChem B.V.), SB431542 (10 μM, Wako Pure Chemical Industries, Ltd.), purmorphamine (0.5 μM, Merck), SHH (200 ng/ml, R&D systems) and CHIR99021 (1 μM, Axon MedChem)) (day 0 of culture), and the cells were cultured at 37° C. under 5% CO2 for 5 days. Then, the medium was exchanged with a differentiation induction medium containing 0.5 μM LDN193189 and 1 μM CHIR99021, and the cells were cultured at 37° C. under 5% CO2 for 5-8 days (total 10-13 days). […]
To examine expression variation of floor plate cell marker due to the presence or absence of factors inducing differentiation into floor plate cell (LDN193189, SB431542, purmorphamine, SHH and CHIR99021), the cells on day 13 of culture were recovered, and total RNA fraction was purified using RNeasy (Qiagen). Using PrimeScript RT reagent kit (Takara Bio Inc.), cDNA was synthesized, quantitative RT-PCR was performed, and the gene expression levels of floor plate cell markers FOXA2 and LMX1A were measured. […]

As for `O=C(NOCC1CC1)c1ccc(F)c(F)c1Nc1ccc(I)cc1Cl` [PD184352, 2-(2-chloro-4-iodophenylamino)-N-cyclopropylmethoxy-3,4-difluorobenzamide], the “expression of NURR1” value in test [1] is on record as “elevated”.

With `CCCS(=O)(=O)Nc1ccc(F)c(C(=O)c2c[nH]c3ncc(-c4ccc(Cl)cc4)cc23)c1F` [PLX4032], the “effect on expression of NURR1” value in test [1] (strain and concentration not given) is given as “no effect”.

On to `Cc1c[nH]c(C=C2C(=O)Nc3ccccc32)c1CCC(=O)O` [SU5402, 3-[4-methyl-2-(2-oxo-1,2-dihydro-indol-3-ylidenemethyl)-1H-pyrrol-3-yl]-propanoic acid], for which, in test [1], the “expression of NURR1” value is on record as “elevated”.

B1: activin A: peptidic cell proliferation and differentiation factor belonging to the TGFβ family; activator of activin receptor-like kinase-4,7 (protein, UniProt P08476 311-426, looked up)
Inhibin beta A chain: GLECDGKVNICCKKQFFVSFKDIGWNDWIIAPSGYHANYCEGECPSHIAGTSGSSLSFHSTVINHYRMRGHSPFANLKSCCVPTKLRPMSMLYYDDGQNIIKKDIQNMIVEECGCS
modifications: Inhibin beta A chain
For the molecule B1, the “TH/hNuc double positive cells” value in test [2] (4 weeks after transplantation to mouse striatum) is given as “not less than 40%”; in test [2] (8 weeks after transplantation to mouse striatum) it was “not less than 50%”. Also, the “TH/hNuc double positive cells, change as compared to 8 weeks” value in test [2] (12 weeks after transplantation to mouse striatum) is given as “did not show a remarkable increase”. In addition, the “expression of TH and NURR1” value in test [3] (20 ng/ml activin A alone) is on record as “scarcely elevated”; in test [3] (activin A added together with ascorbic acid and dbcAMP), “increased remarkably”.

B2: FGF8: growth factor, fibroblast growth factor-8 (protein, UniProt P55075 23-233, looked up)
Fibroblast growth factor 8: QEGPGRGPALGRELASLFRAGREPQGVSQQHVREQSLVTDQLSRRLIRTYQLYSRTSGKHVQVLANKRINAMAEDGDPFAKLIVETDTFGSRVRVRGAETGLYICMNKKGKLIAKSNGKGKDCVFTEIVLENNYTALQNAKYEGWYMAFTRKGRPRKGSKTRQHQREVHFMKRLPRGHHTTEQSLRFEFLNYPPFTRSLRGSQRTWAPEPR
In the case of B2, the “expression of FOXA2 and LMX1A” value in test [4] is on record as “scarcely changed”.
